Results on one molecule are retold here after patent US20040038299A1 (Pfizer, published 2004).

The target in the assay is T1, N-terminal FLAG-tagged full length LTβR (UniProt P36941 31-435).
T1 construct: whole, on cells; Overexpressed in HEK293 cells, immunoprecipitated from lysate with M2 beads; also called Flag-tagged LTβR; pFlag-CMV2-LTβR; not shown: N-terminal FLAG tag from pFLAG-CMV2
Briefly: co-immunoprecipitation in transfected HEK293 cells, Western blot. The procedure:
For immunoprecipitation, 1×10⁸ U937 cells were treated with FLAG-LIGHT at 20 ng/ml for different time or left untreated. Cells were then harvested and lysed in 4 ml of lysis buffer (see above). Cell debris was removed by centrifugation at 14,000+ g for 10 min and resulting lysate was pre-cleared with Gamma Binding beads (Pharmacia Biotech) for 1 hour at 4° C. Then 20 µl of M2 beads were added to cell lysate and incubated at 4° C. for 3 hours. After binding, beads were washed five times with lysis buffer. Immune complexes bound to the beads were eluted with sample buffer, resolve on 4-12% SDS-PAGE gels, transferred to PVDF membrane and probed with TRAF2, TRAF3 or cIAP1 antibody. Signals were detected with HRP-conjugated secondary antibody and ECL detection kits (Amersham Pharmacia Biotech). […] The presence of Smac, LTβR, TRAF2 and cIAP1 in the immune complex were then analyzed by Western blots.
Although two peptides from Smac in the LIGHT-LTβR complex were detected by mass spectrometry, an endogenous association was not detected using Smac antibodies (Alexis Biochemicals or Cell Signaling Technology). […] Smac was expressed as a C-terminal HA-tagged fusion protein and appeared as a doublet of 28 kDa and 23 kDa on the Western blot. […]

T1 sequence (P36941 31-435): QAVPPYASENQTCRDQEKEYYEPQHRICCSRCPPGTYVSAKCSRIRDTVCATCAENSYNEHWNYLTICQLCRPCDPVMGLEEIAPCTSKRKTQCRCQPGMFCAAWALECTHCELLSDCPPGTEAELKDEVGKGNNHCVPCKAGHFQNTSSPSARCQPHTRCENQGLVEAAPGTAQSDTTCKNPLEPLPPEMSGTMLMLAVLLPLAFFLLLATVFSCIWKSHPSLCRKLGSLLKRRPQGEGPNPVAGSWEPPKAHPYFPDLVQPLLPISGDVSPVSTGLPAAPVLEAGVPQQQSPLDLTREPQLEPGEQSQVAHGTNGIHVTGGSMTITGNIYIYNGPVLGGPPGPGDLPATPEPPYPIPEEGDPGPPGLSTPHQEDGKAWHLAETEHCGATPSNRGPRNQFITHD

B1: Δ76 deletion mutant of Smac with a C-terminal HA-tag (other)
chain: RAVSLVTDSTSTFLSQTTYALIEAITEYTKAVYTLTSLYRQYTSLLGKMNSEEEDEVWQVIIGARAEMTSKHQEYLKLETTWMTAVGLSEMAAEAAYQTGADQASITARNHIQLVKLQVEEVHQLSRKAETKLAEAQIEELRQKTQEEGEERAESEQEAYLRED
notes: also called ?76Smac; ?76 Smac; not shown: C-terminal HA tag
Consider B1, for which the binding result is reported as “no binding”.
